Measurements taken from PMC11117632, “Rapid and Sensitive Detection of Inactivated SARS-CoV-2 Virus via Fiber-Optic and Electrochemical Impedance Spectroscopy Based Aptasensors”.

Target: SARS-CoV-2 spike protein (SARS-CoV-2, UniProt P0DTC2 14-1213)
Test: ELONA; binding buffer 50 mM HEPES pH 7.4, 100 mM NaCl, 5 mM KCl, 2 mM MgCl2, 1 mM CaCl2; […]
Conditions: protein: recombinant, chain copies: 3, label: biotin

B1: aptamer 6.9 (ssDNA)
DNA: GCAATGGTACGGTACTTCCATGGCTGGTGCTTGAGGTGTGTGTGGGGGTAGGGCCAAAAGTGCACGCTACTTTGCTAA
  binding result: no binding

B2: aptamer 6.8 (ssDNA)
DNA: GCAATGGTACGGTACTTCCCGGGGCGGGCTGTCATGCCCATCCTACCGTGACCGCAAAAGTGCACGCTACTTTGCTAA
Predicted partial stem-loops
  binding result: no binding
